Target: the molecule itself
Assay: crystal structure; in meso crystals from 10 wt% DSPG/MP swollen mesophase, 20 °C, 0.2 M (NH4)SO4, 0.02 M NaCl, 0.02 M Na acetate pH 4, 33% v/v PEG200; molecular replacement with 4HFI and 4NPQ; 6 Å; closed state

B1: Gloeobacter violaceus ligand-gated ion channel (GLIC) (natural protein)
chain: VSPPPPIADEPLTVNTGIYLIECYSLDDKAETFKVNAFLSLSWKDRRLAFDPVRSGVRVKTYEPEAIWIPEIRFVNVENARDADVVDISVSPDGTVQYLERFSARVLSPLDFRRYPFDSQTLHIYLIVRSVDTRNIVLAVDLEKVGKNDDVFLTGWDIESFTAVVKPANFALEDRLESKLDYQLRISRQYFSYIPNIILPMLFILFISWTAFWSTSYEANVTLVVSTLIAHIAFNILVETNLPKTPYMTYTGAIIFMIYLFYFVAVIEVTVQHYLKVESQPARAASITRASRIAFPVVFLLANIILAFLFF
notes: GLIC, Gloeobacter violaceus ligand-gated ion channel; expressed from pET20-MBP-thrombin-GLIC (N-terminal signal peptide, MBP, thrombin site, GLIC); MBP removed by thrombin; the pentamer is printed as 174 kDa, 1585 amino acids (317 per chain); also called Gloeobacter ligand-gated ion channel; GLIC pentamer; not shown: MBP, N-terminal, cleaved
stoichiometry N: 5

From publication PMC5803273, “Design of ultra-swollen lipidic mesophases for the crystallization of membrane proteins with large extracellular domains” (Nature Communications, 2018)
